Experiment in all cases: cell-based or functional assay
The target in experiment [1] is T1, recombinant cynomolgus PDGF-BB (cynomolgus monkey, UniProt P01127 82-190 (human entry), limits assumed).
T1 chain: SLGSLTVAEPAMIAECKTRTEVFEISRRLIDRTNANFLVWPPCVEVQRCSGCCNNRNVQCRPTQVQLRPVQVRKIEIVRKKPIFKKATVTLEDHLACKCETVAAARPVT

Experiment [2] concerns the target recombinant murine PDGF-BB (mouse, UniProt P31240 82-190).
For another experiment, the target named is recombinant rat PDGF-BB (rat, UniProt Q05028 74-182).
recombinant rat PDGF-BB, sequence (Q05028 74-182 limits assumed): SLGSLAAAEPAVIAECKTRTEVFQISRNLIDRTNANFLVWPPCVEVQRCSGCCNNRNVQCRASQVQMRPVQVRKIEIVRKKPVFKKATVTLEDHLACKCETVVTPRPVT
The target in experiment [3] is recombinant human PDGF-BB (human, UniProt P01127 82-190).

recombinant murine PDGF-BB, sequence (P31240 82-190 limits assumed): as the sequence (Q05028 74-182 limits assumed) above, with V83I, V102I counted along it

B1: 4G8.3-SL-9E8.4 (g) anti-VEGF-A/anti-PDGF-BB DVD-Ig (PR-1572105) (bispecific antibody, human IgG1, kappa, L234A L235A)
heavy: EVQLVQSGSELKKPGASVKVSCKASGYTFTNYGMYWVRQAPGQGLEWMGWINTETGKPTYADDFKGRFVFSLDTSVSTAYLQISSLKAEDTAVYYCARTNYYYRSYIFYFDYWGQGTMVTVSSASTKGPEVTLRESGPALVKPTQTLTLTCTFSGFSLSTYGMGVGWIRQPPGKALEWLANIWWDDDKYYNPSLKNRLTISKDTSKNQVVLTMTNMDPVDTATYYCARIESIGTTYSFDYWGQGTMVTVSSASTKGPSVFPLAPSSKSTSGGTAALGCLVKDYFPEPVTVSWNSGALTSGVHTFPAVLQSSGLYSLSSVVTVPSSSLGTQTYICNVNHKPSNTKVDKKVEPKSCDKTHTCPPCPAPEAAGGPSVFLFPPKPKDTLMISRTPEVTCVVVDVSHEDPEVKFNWYVDGVEVHNAKTKPREEQYNSTYRVVSVLTVLHQDWLNGKEYKCKVSNKALPAPIEKTISKAKGQPREPQVYTLPPSREEMTKNQVSLTCLVKGFYPSDIAVEWESNGQPENNYKTTPPVLDSDGSFFLYSKLTVDKSRWQQGNVFSCSVMHEALHNAYTQKSLSLSPGK
light: DTVLTQSPATLSLSPGERATLSCRASESVSTHMHWYQQKPGQAPRLLIYGASNLESGVPARFSGSGSGTDFTLTISSLEPEDFAVYFCQQSWNDPFTFGQGTKLEIKRTVAAPSVFIFPPEFVLTQSPGTLSLSPGERATLSCERSSGDIGDSYVSWYQQKPGQAPRLVIYADDQRPSGIPDRFSGSGSGTDFTLTISRLEPEDFAVYYCQSYDINIDIVFGGGTKVEIKRTVAAPSVFIFPPSDEQLKSGTASVVCLLNNFYPREAKVQWKVDNALQSGNSQESVTEQDSKDSTYSLSSTLTLSKADYEKHKVYACEVTHQGLSSPVTKSFNRGEC
On to B1, for which, in experiment [1], the “Potency IC50 (nM) cynoPDGF-BB (NIH-3T3 proliferation)” value (“Potency IC50 (nM) cynoPDGF-BB” for short) came to 0.142 nM. The “Potency IC50 (nM) mPDGF-BB (NIH-3T3 proliferation)” value (“Potency IC50 (nM) mPDGF-BB” for short) in experiment [2] stood at 0.096 nM. For the same molecule, the “Potency IC50 (nM) ratPDGF-BB (NIH-3T3 proliferation)” value (from here on “Potency IC50 (nM) ratPDGF-BB”) with recombinant rat PDGF-BB is 1.3 nM. In addition, the “Co-incubation Potency IC50 (nM) hPDGF-BB (NIH-3T3 proliferation, DVD-Ig pre-incubated with excess hVEGF165)” value (“Co-incubation Potency IC50 (nM) hPDGF-BB” below) in experiment [3] is 0.047 nM.

B2: hVEGF 4G8.3-SL-hPDGF 9E8.4 [hu IgG1/k] mut(234, 235) H435A (PR-1569579) (bispecific antibody)
heavy: EVQLVQSGSELKKPGASVKVSCKASGYTFTNYGMYWVRQAPGQGLEWMGWINTETGKPTYADDFKGRFVFSLDTSVSTAYLQISSLKAEDTAVYYCARTNYYYRSYIFYFDYWGQGTMVTVSSASTKGPEVTLRESGPALVKPTQTLTLTCTFSGFSLSTYGMGVGWIRQPPGKALEWLANIWWDDDKYYNPSLKNRLTISKDTSKNQVVLTMTNMDPVDTATYYCARIESIGTTYSFDYWGQGTMVTVSSASTKGPSVFPLAPSSKSTSGGTAALGCLVKDYFPEPVTVSWNSGALTSGVHTFPAVLQSSGLYSLSSVVTVPSSSLGTQTYICNVNHKPSNTKVDKKVEPKSCDKTHTCPPCPAPEAAGGPSVFLFPPKPKDTLMISRTPEVTCVVVDVSHEDPEVKFNWYVDGVEVHNAKTKPREEQYNSTYRVVSVLTVLHQDWLNGKEYKCKVSNKALPAPIEKTISKAKGQPREPQVYTLPPSREEMTKNQVSLTCLVKGFYPSDIAVEWESNGQPENNYKTTPPVLDSDGSFFLYSKLTVDKSRWQQGNVFSCSVMHEALHNAYTQKSLSLSPGK
light: DTVLTQSPATLSLSPGERATLSCRASESVSTHMHWYQQKPGQAPRLLIYGASNLESGVPARFSGSGSGTDFTLTISSLEPEDFAVYFCQQSWNDPFTFGQGTKLEIKRTVAAPSVFIFPPEFVLTQSPGTLSLSPGERATLSCERSSGDIGDSYVSWYQQKPGQAPRLVIYADDQRPSGIPDRFSGSGSGTDFTLTISRLEPEDFAVYYCQSYDINIDIVFGGGTKVEIKGTVAAPSVFIFPPSDEQLKSGTASVVCLLNNFYPREAKVQWKVDNALQSGNSQESVTEQDSKDSTYSLSSTLTLSKADYEKHKVYACEVTHQGLSSPVTKSFNRGEC
Turning to B2, the “Potency IC50 (nM) cynoPDGF-BB” value in experiment [1] is 0.144 nM. Moreover, the “Potency IC50 (nM) mPDGF-BB” value in experiment [2] was found to be 0.15 nM. Further, in the experiment with recombinant rat PDGF-BB, the “Potency IC50 (nM) ratPDGF-BB” value turned out to be 0.994 nM. Further, the “Co-incubation Potency IC50 (nM) hPDGF-BB” value in experiment [3] came out at 0.038 nM.

B3: 4G8.3-GS-9E8.4 (g) anti-VEGF-A/anti-PDGF-BB DVD-Ig (PR-1572102) (bispecific antibody, human IgG1, kappa, L234A L235A)
heavy: EVQLVQSGSELKKPGASVKVSCKASGYTFTNYGMYWVRQAPGQGLEWMGWINTETGKPTYADDFKGRFVFSLDTSVSTAYLQISSLKAEDTAVYYCARTNYYYRSYIFYFDYWGQGTMVTVSSGGGGSGGGGSEVTLRESGPALVKPTQTLTLTCTFSGFSLSTYGMGVGWIRQPPGKALEWLANIWWDDDKYYNPSLKNRLTISKDTSKNQVVLTMTNMDPVDTATYYCARIESIGTTYSFDYWGQGTMVTVSSASTKGPSVFPLAPSSKSTSGGTAALGCLVKDYFPEPVTVSWNSGALTSGVHTFPAVLQSSGLYSLSSVVTVPSSSLGTQTYICNVNHKPSNTKVDKKVEPKSCDKTHTCPPCPAPEAAGGPSVFLFPPKPKDTLMISRTPEVTCVVVDVSHEDPEVKFNWYVDGVEVHNAKTKPREEQYNSTYRVVSVLTVLHQDWLNGKEYKCKVSNKALPAPIEKTISKAKGQPREPQVYTLPPSREEMTKNQVSLTCLVKGFYPSDIAVEWESNGQPENNYKTTPPVLDSDGSFFLYSKLTVDKSRWQQGNVFSCSVMHEALHNAYTQKSLSLSPGK
light: DTVLTQSPATLSLSPGERATLSCRASESVSTHMHWYQQKPGQAPRLLIYGASNLESGVPARFSGSGSGTDFTLTISSLEPEDFAVYFCQQSWNDPFTFGQGTKLEIKRGGSGGGGSGEFVLTQSPGTLSLSPGERATLSCERSSGDIGDSYVSWYQQKPGQAPRLVIYADDQRPSGIPDRFSGSGSGTDFTLTISRLEPEDFAVYYCQSYDINIDIVFGGGTKVEIKRTVAAPSVFIFPPSDEQLKSGTASVVCLLNNFYPREAKVQWKVDNALQSGNSQESVTEQDSKDSTYSLSSTLTLSKADYEKHKVYACEVTHQGLSSPVTKSFNRGEC
With B3, the “Potency IC50 (nM) cynoPDGF-BB” value in experiment [1] was 0.139 nM. Further, the “Potency IC50 (nM) mPDGF-BB” value in experiment [2] was 0.174 nM. For the same molecule, the “Potency IC50 (nM) ratPDGF-BB” value with recombinant rat PDGF-BB came to 2.2 nM. Also, in experiment [3], the “Co-incubation Potency IC50 (nM) hPDGF-BB” value was found to be 0.051 nM.

B4: hVEGF 4G8.3-GS-hPDGF 9E8.4 [hu IgG1/k] mut(234, 235) H435A (PR-1569574) (bispecific antibody)
heavy: EVQLVQSGSELKKPGASVKVSCKASGYTFTNYGMYWVRQAPGQGLEWMGWINTETGKPTYADDFKGRFVFSLDTSVSTAYLQISSLKAEDTAVYYCARTNYYYRSYIFYFDYWGQGTMVTVSSGGGGSGGGGSEVTLRESGPALVKPTQTLTLTCTFSGFSLSTYGMGVGWIRQPPGKALEWLANIWWDDDKYYNPSLKNRLTISKDTSKNQVVLTMTNMDPVDTATYYCARIESIGTTYSFDYWGQGTMVTVSSASTKGPSVFPLAPSSKSTSGGTAALGCLVKDYFPEPVTVSWNSGALTSGVHTFPAVLQSSGLYSLSSVVTVPSSSLGTQTYICNVNHKPSNTKVDKKVEPKSCDKTHTCPPCPAPEAAGGPSVFLFPPKPKDTLMISRTPEVTCVVVDVSHEDPEVKFNWYVDGVEVHNAKTKPREEQYNSTYRVVSVLTVLHQDWLNGKEYKCKVSNKALPAPIEKTISKAKGQPREPQVYTLPPSREEMTKNQVSLTCLVKGFYPSDIAVEWESNGQPENNYKTTPPVLDSDGSFFLYSKLTVDKSRWQQGNVFSCSVMHEALHNAYTQKSLSLSPGK
light: DTVLTQSPATLSLSPGERATLSCRASESVSTHMHWYQQKPGQAPRLLIYGASNLESGVPARFSGSGSGTDFTLTISSLEPEDFAVYFCQQSWNDPFTFGQGTKLEIKRGGSGGGGSGEFVLTQSPGTLSLSPGERATLSCERSSGDIGDSYVSWYQQKPGQAPRLVIYADDQRPSGIPDRFSGSGSGTDFTLTISRLEPEDFAVYYCQSYDINIDIVFGGGTKVEIKGTVAAPSVFIFPPSDEQLKSGTASVVCLLNNFYPREAKVQWKVDNALQSGNSQESVTEQDSKDSTYSLSSTLTLSKADYEKHKVYACEVTHQGLSSPVTKSFNRGEC
In the case of B4, in experiment [1], the “Potency IC50 (nM) cynoPDGF-BB” value came to 0.139 nM. For the same molecule, the “Potency IC50 (nM) mPDGF-BB” value in experiment [2] worked out at 0.134 nM. In the experiment with recombinant rat PDGF-BB, the “Potency IC50 (nM) ratPDGF-BB” value came out at 1.51 nM. The “Co-incubation Potency IC50 (nM) hPDGF-BB” value in experiment [3] was 0.032 nM.

The record behind these values is patent publication US20170015742A1 (published 2017).
